According to patent publication US20260308536A1, “NOVEL URICASE VARIANTS AND METHODS OF USE THEREOF” (priority 2023, published 2026):
Substitutions are numbered along the chain they refer to. Numbers in names are those of the source.

Key:
[1] = substrate: O=c1[nH]c(=O)c2[nH]c(=O)[nH]c2[nH]1; assay: Michaelis-Menten kinetics, MedU_1F1; type: biochemical, Arthrobacter globiformis; settings: other: role: substrate; non-PEGylated; Table 8B; pH 10.5
Procedure: (§1) Select Arthrobacter globiformis uricase variants MedU_1B7, MedU_5B8, MedU_1C2, MedU_5C9, MedU_5E6, MedU_5E9, and MedU_IF1 were subject to further characterization by comparing their expression yields, Michaelis-Menten kinetics parameters, and thermostability measured by temperatures at which 50% of normal activity was lost determined by heat stress activity assay, with those of the wild type Arthrobacter globiformis uricase. The expression yields were determined as described above in the “Methods” section. The Michaelis-Menten kinetics parameters kcat and KM, and temperatures at which 50% of normal activity was lost (i.e., 50% thermal inactivation temperatures, referred to as TI50 (° C.)) measured by heat stress activity assay were likewise determined using the methods described in Example 1.

[2] = substrate: O=c1[nH]c(=O)c2[nH]c(=O)[nH]c2[nH]1; assay: Michaelis-Menten kinetics, MedU_5B8; type: biochemical, Arthrobacter globiformis; settings: other: role: substrate; non-PEGylated; Table 8B; pH 10.5
Procedure: as §1

[3] = substrate: O=c1[nH]c(=O)c2[nH]c(=O)[nH]c2[nH]1; assay: Michaelis-Menten kinetics, MedU_1C2; type: biochemical, Arthrobacter globiformis; settings: other: role: substrate; non-PEGylated; Table 8B; pH 10.5
Procedure: as §1

[4] = substrate: O=c1[nH]c(=O)c2[nH]c(=O)[nH]c2[nH]1; assay: Michaelis-Menten kinetics, MedU_1B7; type: biochemical, Arthrobacter globiformis; settings: other: role: substrate; non-PEGylated; Table 8B; pH 10.5
Procedure: as §1

[5] = substrate: O=c1[nH]c(=O)c2[nH]c(=O)[nH]c2[nH]1; assay: Michaelis-Menten kinetics, MedU_5C9; type: biochemical, Arthrobacter globiformis; settings: other: role: substrate; non-PEGylated; Table 8B; pH 10.5
Procedure: as §1

[6] = substrate: O=c1[nH]c(=O)c2[nH]c(=O)[nH]c2[nH]1; assay: purified protein, by the assay type; type: biochemical, chimeric pig-baboon; settings: other: role: substrate
Procedure: Variants 1 (dURC1) and 3 (dURC3) were identified as possible lead candidates. Besides the mutations according to the library design, i.e., the designed mutations of F75Q; K79N; T83Q; E90H; F96H; I100E; Y105D; V119K; F172Y; L260N; and I262T, dURC3 comprised an off-position amino acid mutation K76N. An off-position amino acid mutation is defined as having a non-designed amino acid at a non-target site. […] Specifically, in the dURC1 backbone, the following mutations were tested separately: L154T; K155D; K155N; L157H; L157T; T159E; T159Q; and S162D; and in the dURC3 backbone, the K155N mutation was tested. […] The characteristics, including yield, activity, melting temperature measured by DSF, temperature at which 50% of normal activity was lost after heating measured by heat stress activity assay, Michaelis-Menten kinetics parameters, of variants 1, 2, 3, and 4 (i.e., dURC1, dURC2, dURC3 and dURC4), as well as the wild type chimeric pig-baboon uricase, are summarized in Table 2. The amino acid sequences of dURC1, dURC2, dURC3 and dURC4 are shown as SEQ ID NO: 1, 2, 3, and 4, respectively.
(§2) The activity of the purified enzymes was quantified by Michaelis Menten kinetic analysis, using the solution phase microplate assay across a range of substrate concentrations (FIG. 4B).

[7] = substrate: O=c1[nH]c(=O)c2[nH]c(=O)[nH]c2[nH]1; assay: purified protein, by the assay type; type: biochemical, chimeric pig-baboon; settings: other: role: substrate; remark: listed apart in the source
[8] = substrate: O=c1[nH]c(=O)c2[nH]c(=O)[nH]c2[nH]1; assay: Michaelis-Menten kinetics, MedU_5E9; type: biochemical, Arthrobacter globiformis; settings: other: role: substrate; non-PEGylated; Table 8B; pH 10.5
Procedure: as §1

[9] = substrate: O=c1[nH]c(=O)c2[nH]c(=O)[nH]c2[nH]1; assay: Michaelis-Menten kinetics, wild type Arthrobacter globiformis uricase; type: biochemical; settings: other: role: substrate; non-PEGylated; Table 8B; pH 10.5
Text: Non-PEGylated deimmunized Arthrobacter globiformis uricase variants were created by introducing additional amino acid substitutions into the R49S variant Arthrobacter globiformis uricase of SEQ ID NO:6 disclosed in Nyborg et al., PLOS One, 2016, DOI: 10.1371/journal.pone.0167935. For ease of description, the R49S variant Arthrobacter globiformis uricase of SEQ ID NO:6 is referred to as the wild type Arthrobacter globiformis uricase herein, as it serves as the enzyme being mutated to arrive at the variants. The monomeric form of the wild type Arthrobacter globiformis uricase comprises the amino acid sequence of SEQ ID NO:6, where methionine is residue #1. The specified mutations in the Arthrobacter globiformis uricase variants of this example are indexed to methionine as residue #1, as in SEQ ID NO:6. […]
Select Arthrobacter globiformis uricase variants MedU_1B7, MedU_5B8, MedU_1C2, MedU_5C9, MedU_5E6, MedU_5E9, and MedU_IF1 were subject to further characterization by comparing their expression yields, Michaelis-Menten kinetics parameters, and thermostability measured by temperatures at which 50% of normal activity was lost determined by heat stress activity assay, with those of the wild type Arthrobacter globiformis uricase. The expression yields were determined as described above in the “Methods” section. […]

[10] = substrate: O=c1[nH]c(=O)c2[nH]c(=O)[nH]c2[nH]1; assay: purified protein, by the assay type; type: biochemical, chimeric pig-baboon; settings: other: role: substrate; remark: listed apart in the source
Text: The monomeric form of the wild type chimeric pig-baboon uricase comprises the amino acid sequence of SEQ ID NO:5, where threonine is residue #1. The specified mutations in the chimeric pig-baboon uricase variants of this example are indexed to threonine as residue #1, as in SEQ ID NO:5. […] The expression vector pET-26b(+) encodes a His tag containing 6 histidine residues at the C-terminus of the inserted uricase gene.
as §2

[11] = non-PEGylated, pH 10.5, 25° C., Table 2
[12] = purified enzyme, non-linear regression, Table 3, pH 10.5, 25.0 °C

B1: Arthrobacter globiformis uricase variant MedU_1F1, A35D/A83G/L89G/V195E/Y203H/A204E/A213G/L220H/I243V/K244S/K250N, SEQ ID NO: 95 (Arthrobacter globiformis; … (protein)
chain: MTATAETSTGTKVVLGQNQYGKAEVRLVKVTRNTDRHEIQDLNVTSQLSGDFEAAHTAGDNAHVVATDTQKNTVYAFARDGFGTTEEFGLRLGKHFTEGFDWVTGGRWAAQQFFWDRINDHDHAFSRNKSEVRTAVLEISGSEQAIVAGIEGLTVLKSTGSEFHGFPRDKYTTLQETTDRILATDVSARWRYNTEEVDFDAVHESVRGLLLKGFAETHSHALQQTMYEMGRAVIETHPEIDEVSMSLPNNHHFLVDLQPFGQDNPNEVFYAADRPYGLIEATIQREGSRAD
notes: R49S backbone, 291 aa; pET-26b(+), C-terminal His6, E. coli; non-PEGylated
Km [1]: 370 ± 60 µM | kcat [1]: 2.5 ± 0.1 s⁻¹

B2: Arthrobacter globiformis uricase variant MedU_5B8, A35D/A83G/A145T/A148S/V195E/A204D/A213G/L220H/I243V/K244S, SEQ ID NO: 134 (Arthrobacter globiformis; … (protein)
chain: B1 chain with G89L, A145T, A148S, H203Y, E204D, N250K
notes: as for B1
Km [2]: 390 ± 80 µM | kcat [2]: 3.9 ± 0.2 s⁻¹

B3: Arthrobacter globiformis uricase variant MedU_1C2, A145T/V195E/I243V/K244S/K250N/Y270H, SEQ ID NO: 80 (Arthrobacter globiformis; … (protein)
chain: B1 chain with D35A, G83A, G89L, A145T, H203Y, E204A, G213A, H220L, Y270H
notes: as for B1
Km [3]: 500 ± 90 µM | kcat [3]: 3.4 ± 0.2 s⁻¹

B4: Arthrobacter globiformis uricase variant MedU_1B7, A35D/A83G/A145T/A148S/A204G/A213G/I243V/K244S, SEQ ID NO: 77 (Arthrobacter globiformis; … (protein)
chain: B1 chain with G89L, A145T, A148S, E195V, H203Y, E204G, H220L, N250K
notes: as for B1
Km [4]: 440 ± 90 µM | kcat [4]: 3.8 ± 0.2 s⁻¹

B5: Arthrobacter globiformis uricase variant MedU_5C9, A35D/A145H/A148S/V195D/A204D/A213G/K244S/K250N, SEQ ID NO: 144 (Arthrobacter globiformis; … (protein)
chain: B1 chain with G83A, G89L, A145H, A148S, E195D, H203Y, E204D, H220L, V243I
notes: as for B1
Km [5]: 340 ± 80 µM | kcat [5]: 2.4 ± 0.1 s⁻¹

B6: chimeric pig-baboon uricase variant 1 (dURC1), F75Q/K79E/T83Q/E90H/F96H/I100H/Y105D/V119K/Y127H/F172Y/L260N, SEQ ID NO: 1 (Sus scrofa; … (protein)
chain: TYKKNDEVEFVRTGYGKDMIKVLHIQRDGKYHSIKEVATTVQLTLSSKKDYLHGDNSDVIPTDTIKNTVNVLAKQKGIESIEQFAVTICHHFLSSHKHVHRAQVDVEEVPWKRFEKNGKKHVHAFIHTPTGTHFCEVEQIRNGPPVIHSGIKDLKVLKTTQSGFEGFIKDQYTTLPEVKDRCFATQVYCKWRYHQGRDVDFEATWDTVRSIVLQKFAGPYDKGEYSPSVQKTLYDIQVLTLGQVPEIEDMEISLPNIHYNNIDMSKMGLINKEEVLLPLDNPYGKITGTVKRKLSSRL
notes: purified
Km [6, 11]: 678 µM | Km [6, 12]: 700 ± 100 µM

B7: chimeric pig-baboon uricase variant 4 (dURC4), F75Q/K76N/K79N/T83Q/E90H/F96H/I100E/Y105D/V119K/K155N/F172Y/L260N/I262T, SEQ ID NO: 4 (Sus scrofa; … (protein)
chain: B6 chain with K76N, E79N, H100E, H127Y, K155N, I262T
notes: purified
Km [6, 11]: 347 µM | Km [6, 12]: 350 ± 20 µM

B8: chimeric pig-baboon uricase variant 3 (dURC3), F75Q/K76N/K79N/T83Q/E90H/F96H/I100E/Y105D/V119K/F172Y/L260N/I262T, SEQ ID NO: 3 (Sus scrofa; … (protein)
chain: B6 chain with K76N, E79N, H100E, H127Y, I262T
notes: purified
Km [7, 11]: 595 µM | Km [7, 12]: 600 ± 70 µM

B9: chimeric pig-baboon uricase variant 2 (dURC2), F75Q/K79E/T83Q/E90H/F96H/I100H/Y105D/V119K/Y127H/K155N/F172Y/L260N, SEQ ID NO: 2 (Sus scrofa; … (protein)
chain: B6 chain with K155N
notes: purified
Km [6, 11]: 467 µM | Km [6, 12]: 470 ± 60 µM

B10: Arthrobacter globiformis uricase variant MedU_5E9, N33E/A35D/A83G/A145T/A148S/V195D/A204D/A213G/L220K/K244S/Y270H, SEQ ID NO: 164 (Arthrobacter globiformis; … (protein)
chain: MTATAETSTGTKVVLGQNQYGKAEVRLVKVTRETDRHEIQDLNVTSQLSGDFEAAHTAGDNAHVVATDTQKNTVYAFARDGFGTTEEFLLRLGKHFTEGFDWVTGGRWAAQQFFWDRINDHDHAFSRNKSEVRTAVLEISGSEQTIVSGIEGLTVLKSTGSEFHGFPRDKYTTLQETTDRILATDVSARWRYNTDEVDFDAVYDSVRGLLLKGFAETHSKALQQTMYEMGRAVIETHPEIDEISMSLPNKHHFLVDLQPFGQDNPNEVFHAADRPYGLIEATIQREGSRAD
notes: as for B1
Km [8]: 800 ± 100 µM | kcat [8]: 6.0 ± 0.4 s⁻¹

B11: Arthrobacter globiformis uricase, wild type (R49S variant, referred to as wild type), SEQ ID NO: 6 (Arthrobacter globiformis; R49S) (protein)
chain: MTATAETSTGTKVVLGQNQYGKAEVRLVKVTRNTARHEIQDLNVTSQLSGDFEAAHTAGDNAHVVATDTQKNTVYAFARDGFATTEEFLLRLGKHFTEGFDWVTGGRWAAQQFFWDRINDHDHAFSRNKSEVRTAVLEISGSEQAIVAGIEGLTVLKSTGSEFHGFPRDKYTTLQETTDRILATDVSARWRYNTVEVDFDAVYASVRGLLLKAFAETHSLALQQTMYEMGRAVIETHPEIDEIKMSLPNKHHFLVDLQPFGQDNPNEVFYAADRPYGLIEATIQREGSRAD
notes: His6 (C); made in house; host or cells: E. coli
Km [9]: 270 ± 80 µM | kcat [9]: 2.3 ± 0.2 s⁻¹

B12: chimeric pig-baboon uricase, wild type, SEQ ID NO: 5 (Sus scrofa; R291K/S46T/T301S) (protein)
chain: TYKKNDEVEFVRTGYGKDMIKVLHIQRDGKYHSIKEVATTVQLTLSSKKDYLHGDNSDVIPTDTIKNTVNVLAKFKGIKSIETFAVTICEHFLSSFKHVIRAQVYVEEVPWKRFEKNGVKHVHAFIYTPTGTHFCEVEQIRNGPPVIHSGIKDLKVLKTTQSGFEGFIKDQFTTLPEVKDRCFATQVYCKWRYHQGRDVDFEATWDTVRSIVLQKFAGPYDKGEYSPSVQKTLYDIQVLTLGQVPEIEDMEISLPNIHYLNIDMSKMGLINKEEVLLPLDNPYGKITGTVKRKLSSRL
notes: as for B11
Km [10, 11]: 397 µM | Km [10, 12]: 400 ± 50 µM
